According to the supplement of paper PMC9170038:

System: MS2 coat protein
Assay: apparent KD of MS2 coat protein; designed switch direction (-1 OFF switch, 1 ON switch): -1; higher = weaker reporter binding
In short: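 Designed RNA switches were transcribed on Illumina chips by stalled E. coli RNA polymerase and titrated with SNAP-549-labelled MS2 coat protein from 0.7 or 1.5 nM, doubling to 3 µM. Step length ran from 0.8–1.5 h at the lowest concentration to 10–20 min at the highest. The apparent KD is the median over clusters for each design, from curve-fitted normalised cluster fluorescence.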

[1] = Eterna round: R95, input ligand: microRNA oligo, concentration not stated
[2] = Eterna round: R95, input ligand: FMN 200 uM
[3] = Eterna round: R95, input ligand: none
[4] = input ligand: microRNA oligo, concentration not stated

Sequence	apparent KD of MS2 coat protein [1]	apparent KD of MS2 coat protein (input ligand: FMN 200 uM)	apparent KD of MS2 coat protein (input ligand: none)	apparent KD of MS2 coat protein [2]	apparent KD of MS2 coat protein [3]	apparent KD of MS2 coat protein [4]
AAAUUAAGUGUGAGGAUAUGCUGGUCCUUAGAUCAGCAGAAGGCACAUGAGGAUCACCCAUGUAAUAUAUUUAA [Mat - Exclusion 4 - JL Mod - D50] (puzzle: Brourd's mod of Exclusion 4)	35.4 nM					
AAAUUAGCAAGUAGAUCCGACAUGAGGAUCACCCAUGUAAUCUAAAAUUACGCUGCACGAAAGUGCGCUCGUCUUAG [Sensor-V1 #13] (Eterna round: R97, puzzle: Sensor, turn-off variant 1)		362 nM	405 nM			
AAAUUAGCAAGUAGGUCCGACAUGAGGAUCACCCAUGUAAUCUGAAAUUACGCUGCACGAAAGUGCGCUCGUCUUAG [Sensor-V1 #11] (Eterna round: R97, puzzle: Sensor, turn-off variant 1)		149 nM	149 nM			
AAAUUGCUAGAGGAUAUCGGAUAGGAUCUAUCGCGAGAAGGCUGGACAUGAGGAUCACCCAUGUUCUGUUGGGA [EX6 #29] (Eterna round: R97, puzzle: Exclusion 6)		57.4 nM	25.2 nM			
AAAUUGGUAGAGGAUAUCGCACAGGAAACACUGCGAGAAGGCUGCACAUGAGGAUCACCCAUGUUUAGUUGCGA [EX6 #37] (Eterna round: R97, puzzle: Exclusion 6)		22.5 nM	16.6 nM			
AAAUUGGUAGAGGAUAUUGUACAGGAAACGGUGCGAGAAGGUUGCACAUGAGGAUCACCCAUGUUAAGUUGCGA [EX6 #46] (Eterna round: R97, puzzle: Exclusion 6)		39.9 nM	25.7 nM			
AAAUUGUGAGGAUAUCAGGUGUGCUAGCGUACUGGUACAUCUGAGAAGGCACAUGAGGAUCACCCAUGUUUCUU [Mat - Exclusion 4 - Mod of JL - D43] (puzzle: Exclusion 4)	15.2 nM					
AAAUUUGGAGGAUAUCCAUUGGGAAACAUGAGGAUCACCCAUGUAAUAAAAGGGAAAUCCGGAGAAGGCCAAAUUU [-20.39, -19.1 kcal, 39% A] (Eterna round: R97, puzzle: Exclusion 5)		45.7 nM	19.1 nM			
AACAACGUAGGAUAUGCAGCUACGGACUUGAGGAUCACCCAAGUGAUCAUAGCCCGUAUAGCAGAAGGGCGGAUCA [Arontebi] (Eterna round: R97, puzzle: Exclusion 5)		321 nM	224 nM			
AACAAUAAGGAGGAUAUCGUAUCGGAAACGAUACGAGAAGGCUUAACAUGAGGAUCACCCAUGUUCUUCAAUAA [Fiskers Ex 6 - 24] (puzzle: Exclusion 6)	17.1 nM			19.1 nM	17.7 nM	
AACAGGUCAGGAUAUACAUGAGGAUCACCCAUGUAGACUUCUGGUCUACCUUGACCGUGUAGAAGGGACCUGAA [Exclusion 3 (MOD2 of #98 Marzena11)] (Eterna round: R97, puzzle: Exclusion 3)		43.9 nM	28.8 nM			
AACAGUACAGGAUAUACAUGAGGAUCACCCAUGUGAGACUUAAGUGGCGUACCACAAAGUAGAAGGGUACUGGA [JL Maslow Revisted mod 8] (Eterna round: R96, puzzle: Exclusion 3)		838 nM	90.3 nM			85.9 nM
AACAGUCUGGAGGAUAUGCUGGAUUAAUAUCUGGCAGAAGGCUGGACAUGAGGAUCACCCAUGUAAAUACUACC [Omei Ex6 A2] (Eterna round: R97, puzzle: Exclusion 6)		55.2 nM	21.5 nM			
AACAUGUAAGGAUAUAAAAGAAGGAGUACAAAGCCCUCCUAUUAGAAGGUACAUGAGGAUCACCCAUGUGGCGG [Eternabot (L2) Solution 96] (Eterna round: R97, puzzle: Exclusion 4)		336 nM	57.1 nM			
AACAUGUGAGGAUAUUUAAGAAAAGAAAAGAAAGAAAAGAAAAAGAAGGCACAUGAGGAUCACCCAUGUAAGAA [EteRNA is fun!] (Eterna round: R96, puzzle: Exclusion 4)						19 nM
AACCAGCGAGGAUAUGCUUGCGCGUGUUCUGGUUGUAAUCGACUUGAGGAUCACCCAAGUAGAAGGCGCUGCCG [EX2 #51] (Eterna round: R97, puzzle: Exclusion 2)		100 nM	50.9 nM			
AACCGUGCGGAGGAUAUUGAUAUCCCAGUCUAUCAAGAAGGCUGCACAUGAGGAUCACCCAUGUGAUCCGUGCU [Riri] (Eterna round: R96, puzzle: Exclusion 6)		201 nM	25.1 nM			20.7 nM
AACCGUGCGGAGGAUAUUGAUAUCCCAGUCUAUCAAGAAGGCUGCACAUGAGGAUCACCCAUGUGAUCCGUGCU [Riri] (puzzle: Exclusion 6)	23.6 nM					

Sequence	apparent KD of MS2 coat protein [1]	apparent KD of MS2 coat protein (input ligand: FMN 200 uM)	apparent KD of MS2 coat protein (input ligand: none)	apparent KD of MS2 coat protein [2]	apparent KD of MS2 coat protein [3]	apparent KD of MS2 coat protein [4]
AACCUCGGAGGAUAUACCUACCGAUUCACAAGUGUCACAUCACAUGAGGAUCACCCAUGUAGAAGGUCGAGGCG [Onorzais] (puzzle: Exclusion 2)	30.1 nM					
AACCUGAGGCUUUGCUUUAGGUGUACAUGAGGAUCACCCAUGUAGGAUAUGGUAGGCUUUGCUUACCAGAAGGACAUAAUGAUG [JL ENG3 1.16] (Eterna round: R96, puzzle: Exclusion NG 3)		81.1 nM	55.2 nM			30.6 nM
AACCUGUCAGGAUAUCAAUUCUGUGCGUGACUACAGGACGCUGAGAAGGGACAUGAGGAUCACCCAUGUUGACU [Eternabot (Original) Solution 33] (Eterna round: R97, puzzle: Exclusion 4)		24.7 nM	26.8 nM			
AACGUGGCUUAGGAUAUUGCUACGCAAAAGUAACAAGAAGGAGGCACAUGAGGAUCACCCAUGUGAUUCGUUGA [Ineror] (puzzle: Exclusion 6)	14.8 nM					
AACGUGUGAGGAUAUGCCGUGCCCUUCCGGAAGGAGCGGGUGCAGAAGGCACAUGAGGAUCACCCAUGUCGGCA [Excls4-V] (puzzle: Exclusion 4)	31.4 nM					
AACUCACAUGAGGAUCACCCAUGUGAGGAUAUGGUUUCGCUGGCCGUAGCCAGUGGAACCAGAAGGCGCGUGAU [Mat - Exclusion 1 - JL Mod - D26] (Eterna round: R97, puzzle: Exclusion 1)		52.4 nM	58.9 nM			
AACUCAUGUUCAGGAUAUCGCGUUCCAAAGACAUGAGAAGGGAACAUGAGGAUCACCCAUGUGCCCGGUCUCAGACCGGGCUUC [Legebi] (Eterna round: R96, puzzle: Exclusion NG 1)		272 nM	97.1 nM			71 nM
AACUCCUCAGGAUAUCUGAAAAUGGACAUGAGGAUCACCCAUGUGAAAGUCACAUCCGGAGGAGAAGGGAGGAGAA [Diororlera] (Eterna round: R97, puzzle: Exclusion 5)		44.6 nM	16 nM			
AACUUCUGAGGAUAUACAUAGAUUUACAUGAGGAUCACCCAUGUUCCUCUAUGUAUAAAUGUAGAAGGCAGAAGAA [JL-ex5-4.37 Malcolm mod] (Eterna round: R97, puzzle: Exclusion 5)		88.6 nM	18.3 nM			
AAGAAACAGCUAGGAUAUCAGACCAACAUGAGGAUCACCCAUGUCAAGGUCUUUCUUAGUAGGUUUGAGAAGGAGCCAUAAAUA [Xelequriqu] (Eterna round: R96, puzzle: Exclusion NG 2)		11.7 nM	11.2 nM			9.11 nM
AAGAAACAUGAGGAUCACCCAUGUCAGGAUAUGAGAAGAAAGAAGAAGAAAGAAGGAAUCAGAAGGGACAAAGG [Ex 1 M6 Mod of Hoglahoo] (puzzle: Exclusion 1)	51.7 nM			45.5 nM	41.8 nM	
AAGAAACAUGAGGAUCACCCAUGUGAGGAUAUGAAAAAGAAAAGAAAAGAAAGAAGAAUCAGAAGGCACAAAGA [salish99-ex1_r3_080] (puzzle: Exclusion 1)	22.2 nM			26.9 nM	27.1 nM	
AAGAAACAUGAGGAUCACCCAUGUGAGGAUAUGAAAAAGAAAAGAAAAGAAAGAAGUAUCAGAAGGCACAAAGG [salish99-ex1_r3_023] (puzzle: Exclusion 1)	38.6 nM			57.6 nM	62.8 nM	
AAGAAACAUGAGGAUCACCCAUGUGAGGAUAUGAAAAAGAAAAGAAAAUAAAGAAGAAUCAGAAGGCACAAAGG [Mat - Mod of Hog D3] (puzzle: Exclusion 1)	34.4 nM			37.7 nM	46.1 nM	
AAGAAACAUGAGGAUCACCCAUGUGAGGAUAUGACAAAGAAAAGAAAAGAAAGAAGACUCAGAAGGCACAAAGG [salish99-ex1_r3_039] (puzzle: Exclusion 1)	40.6 nM			46.3 nM	52 nM	
AAGAAACAUGAGGAUCACCCAUGUGAGGAUAUGACCAAGAAAAGAAAAGAAAGAAGAUUCAGAAGGCACAAAGG [salish99-ex1_r3_060] (puzzle: Exclusion 1)	29.9 nM			49.7 nM	40.7 nM	
AAGAAACAUGAGGAUCACCCAUGUGAGGAUAUGAGCAAGAAAAGAAAAGAAAGAAGAAUCAGAAGGCACAAAGG [salish99-ex1_r3_050] (Eterna round: R96, puzzle: Exclusion 1)		68.5 nM	37.4 nM			31.7 nM
AAGAAACAUGAGGAUCACCCAUGUGAGGAUAUGAGCAAGAAAAGAAAAGAAAGAAGAAUCAGAAGGCACAAAGG [salish99-ex1_r3_050] (puzzle: Exclusion 1)	1.1 nM			6990 nM	49.3 nM	
